The values below come from PMC10881500, “Structure-guided engineering of immunotherapies targeting TRBC1 and TRBC2 in T cell malignancies” (Nature Communications, 2024).

Substitutions are numbered along the chain they refer to. Names and notes keep the numbering of the source. Read-outs that look alike come from different tables or passages of the source.

For orientation: Kd means the free concentration of one partner at which half of the binding sites on the other are occupied at equilibrium, for simple one-to-one binding. What is called koff is a measure of how fast the partners let go of each other.

Test [1] concerns the target T1, TCR with the TRBC1 β-chain constant domain, on cells (Homo sapiens, UniProt P01848;P01850).
Target sequence in this assay (P01848 whole entry, chain 1 of 2, the tested form may be a part): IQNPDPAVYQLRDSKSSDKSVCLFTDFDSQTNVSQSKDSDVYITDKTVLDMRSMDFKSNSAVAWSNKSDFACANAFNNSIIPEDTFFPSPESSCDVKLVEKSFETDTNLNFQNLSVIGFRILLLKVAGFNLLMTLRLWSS
Target sequence in this assay (P01850 whole entry, chain 2 of 2, the tested form may be a part): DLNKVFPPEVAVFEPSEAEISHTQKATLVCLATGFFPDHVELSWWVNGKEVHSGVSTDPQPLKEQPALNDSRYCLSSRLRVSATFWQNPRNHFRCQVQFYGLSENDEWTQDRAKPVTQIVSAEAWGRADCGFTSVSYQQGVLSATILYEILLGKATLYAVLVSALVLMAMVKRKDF
The target of test [2] is T2, Recombinant, purified TRBC1 (soluble αβ TCR with the β-chain constant domain TRBC1), SPR analyte (Homo sapiens, HA1.7 TCR with TRBC1).
Target sequence in this assay (main, as listed by the source, chain 1 of 2): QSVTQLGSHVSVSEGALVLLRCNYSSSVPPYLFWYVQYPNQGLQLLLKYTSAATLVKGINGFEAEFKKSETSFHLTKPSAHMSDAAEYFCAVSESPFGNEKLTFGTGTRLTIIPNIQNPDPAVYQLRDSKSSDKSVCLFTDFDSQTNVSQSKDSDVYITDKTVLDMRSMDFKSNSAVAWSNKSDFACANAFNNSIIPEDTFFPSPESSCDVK
Target sequence in this assay (partner, as listed by the source, chain 2 of 2): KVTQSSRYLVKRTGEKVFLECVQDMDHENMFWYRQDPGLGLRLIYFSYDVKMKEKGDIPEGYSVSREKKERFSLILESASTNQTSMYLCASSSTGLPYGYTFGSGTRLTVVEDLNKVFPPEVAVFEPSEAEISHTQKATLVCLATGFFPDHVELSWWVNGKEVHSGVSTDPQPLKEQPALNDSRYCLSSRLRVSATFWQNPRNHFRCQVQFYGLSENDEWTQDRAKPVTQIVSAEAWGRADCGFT
For test [3], the target named is T2, Recombinant, purified TRBC1 (soluble αβ …). As to the kind of experiment: SPR; Biacore T200; scFv-Fc captured on a Series S Protein A chip to 50 RU; TRBC1 or TRBC2 as analyte, 150 s contact, 500 s dissociation, 30 μl/min, 25 °C, HBS-P+ pH 7.4; 1:1 Langmuir model. The conditions noted are these: both partners purified. For orientation: In SPR one partner is held on a chip, and binding of the other changes the refractive index at the surface.

Test [4] concerns the target T1, TCR with the TRBC1 β-chain constant …. The test is described as follows: flow cytometry on cells; HPB-ALL TRBC1, HPB-ALL TRBC2 or HPB-ALL TCR KO cells; titration of IgG from 10 μg/ml in 2-fold dilutions, 30 min RT; anti-human IgG Alexa Fluor 647. Conditions: one partner purified. (In general: A flow cytometer gives signals particle by particle.)
Target sequence in this assay (P01850 whole entry, looked up, chain 1 of 2, the tested form may be a part): as the sequence (P01850 whole entry, chain 2 of 2, the tested form may be a part) above
Target sequence in this assay (P01848 whole entry, looked up, chain 2 of 2, the tested form may be a part): as the sequence (P01848 whole entry, chain 1 of 2, the tested form may be a part) above
In test [5] the target is T2, Recombinant, purified TRBC1 (soluble αβ …). The test is described as follows: SPR; Biacore T200; antibody as human IgG1 captured with an anti-human capture kit on CM5 to 200 RU; TRBC1 or TRBC2 as analyte, 150 s contact, 300 s dissociation, 30 μl/min, 25 °C, HBS-P+ pH 7.4; 1:1 Langmuir model. Conditions: both partners purified.
Test [6] concerns the target T3, Recombinant, purified TRBC2 (soluble αβ TCR with the β-chain constant domain TRBC2), SPR analyte (Homo sapiens, HA1.7 TCR with TRBC2).
T3 construct: also called recombinant TRBC2; source: recombinant, purified
The test is described as above. The conditions noted are these: both partners purified.

For test [7], the target named is T3, Recombinant, purified TRBC2 (soluble αβ …). The test is described as follows: not stated; bi-paratopic (avid) engagement allowed; Supplementary Fig. 12.
In test [8] the target is TCR with the TRBC2 β-chain constant domain, on cells (Homo sapiens, UniProt P01848;A0A5B9). As to the kind of experiment: flow cytometry on cells; staining of TCR+ cell lines with HuJovi-1 or KFN. Conditions: one partner purified.
Test [9] concerns the target T3, Recombinant, purified TRBC2 (soluble αβ …). The test is described as follows: SPR; Biacore T200; scFv-Fc captured on a Series S Protein A chip to 50 RU; TRBC1 or TRBC2 as analyte, 150 s contact, 500 s dissociation, 30 μl/min, 25 °C, HBS-P+ pH 7.4; 1:1 Langmuir model. The conditions noted are these: both partners purified.

Sequence of TCR with the TRBC2 β-chain constant domain, on cells (A0A5B9 whole entry, looked up, chain 1 of 2, the tested form may be a part): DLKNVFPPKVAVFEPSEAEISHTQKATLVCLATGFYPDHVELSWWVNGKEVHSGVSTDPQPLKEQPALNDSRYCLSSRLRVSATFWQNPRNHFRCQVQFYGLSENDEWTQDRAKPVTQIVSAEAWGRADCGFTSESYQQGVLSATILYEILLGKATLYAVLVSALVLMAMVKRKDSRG
Sequence of TCR with the TRBC2 β-chain constant domain, on cells (P01848 whole entry, looked up, chain 2 of 2, the tested form may be a part): as the sequence (P01848 whole entry, chain 1 of 2, the tested form may be a part) above

B1: MuJovi-1 (antibody, V domains shown)
VH: EVRLQQSGPDLIKPGASVKMSCKASGYTFTGYVMHWVKQRPGQGLEWIGFINPYNDDIQSNERFRGKATLTSDKSSTTAYMELSSLTSEDSAVYYCARGAGYNFDGAYRFFDFWGQGTTLTVSS
VL: DVVMTQSPLSLPVSLGDQASISCRSSQRLVHSNGNTYLHWYLQKPGQSPKLLIYRVSNRFPGVPDRFSGSGSGTDFTLKISRVEAEDLGIYFCSQSTHVPYTFGGGTKLEIK
For B1, the binding result in [1] is on record as “binds”. The Kd in test [2] was determined as 1.6 nM.

B2: HuJovi-1 scFv-Fc (scFv, V domains shown)
VH: QVQLVQSGAEVKKPGASVKVSCKASGYTFTGYVMHWVRQAPGQGLEWMGFINPYNDDIQSNERFRGRVTMTRDTSISTAYMELSRLRSDDTAVYYCARGAGYNFDGAYRFFDFWGQGTMVTVSS
VL: B1 VL with V2I, S14T, L15P, D17E, Q18P, K50R, L88V, I90V, F92Y, G105Q
notes: scFv of HuJovi-1: VH and VL as in m1 (PDB 7AMP, 7AMQ); scFv-Fc with a murine IgG2a Fc; captured on a Protein A chip; source: ExpiCHO, transient transfection, purified (MabSelect SuRe)
Take B2: in test [3], the Kd is 7.51 nM and the koff is 0.003 s⁻¹.

B3: HuJovi-1 (humanized Jovi-1), human IgG1 (antibody, V domains shown)
VH: B2 VH
VL: B1 VL with V2I, S14T, L15P, D17E, Q18P, K50R, L88V, I90V, F92Y, G105Q
notes: VH of HuJovi-1 (CDRs of Jovi-1 grafted on IGHV1-2*02); constant region of the human IgG1 heavy chain; whole light chain (CDRs of Jovi-1 grafted on IGKV2-29*02, kappa constant from the AbVec kappa vector); IgG1; The section on CDR grafting names HEK293T as host, the section on antibody expression ExpiCHO; also called aTRBC1; source: ExpiCHO, transient transfection, purified (MabSelect SuRe)
Turning to B3, in test [4], the binding result is recorded as “binds”. In addition, in test [5], the equilibrium dissociation constant (Kd) was 2.57 nM and the koff worked out at 0.000618 s⁻¹.

B4: KFN (Mut3; HuJovi-1 VH T28K, Y32F, A96N), human IgG1 (antibody, V domains shown)
VH: B2 VH with T28K, Y32F, A100N
VL: B1 VL with V2I, S14T, L15P, D17E, Q18P, K50R, L88V, I90V, F92Y, G105Q
notes: VH of KFN: as the VH of m1 (PDB 7AMP, 7AMQ) with the stated changes, positions in Kabat numbering; constant region of the human IgG1 heavy chain; as the light chain of m1; IgG1; also called Lys28/Phe32/Asn96; aTRBC2; source: ExpiCHO, transient transfection, purified (MabSelect SuRe)
With B4, in test [6], the equilibrium dissociation constant (Kd) is 479 nM and the dissociation rate constant (koff) came to 0.0386 s⁻¹. Moreover, the “fold affinity differential TRBC1:TRBC2 with bi-paratopic engagement” value in test [7] is more than 100 fold. Moreover, the binding result in test [8] is “binds”.

B5: KFN scFv-Fc (scFv, V domains shown)
VH: B2 VH with T28K, Y32F, A100N
VL: B1 VL with V2I, S14T, L15P, D17E, Q18P, K50R, L88V, I90V, F92Y, G105Q
notes: scFv of KFN: VH and VL as in m6 (PDB 7AMS, 7AMR), that is the VH of m1 with the stated changes (Kabat numbering); scFv-Fc with a murine IgG2a Fc; captured on a Protein A chip; source: ExpiCHO, transient transfection, purified (MabSelect SuRe)
With B5, in [9], the Kd was 1170 nM and the off-rate constant (koff) was 0.0995 s⁻¹.

B6: Mut5 (HuJovi-1 VH Y32F), human IgG1 (antibody, V domains shown)
VH: B2 VH with Y32F
VL: B1 VL with V2I, S14T, L15P, D17E, Q18P, K50R, L88V, I90V, F92Y, G105Q
notes: as the VH of m1 with the stated change; positions in Kabat numbering; constant region of the human IgG1 heavy chain; as the light chain of m1; IgG1; source: ExpiCHO, transient transfection, purified (MabSelect SuRe)
In the case of B6, in [5], the Kd was 426 nM and the koff is 0.0457 s⁻¹.

B7: Mut6 (HuJovi-1 VH A96N), human IgG1 (antibody, V domains shown)
VH: B2 VH with A100N
VL: B1 VL with V2I, S14T, L15P, D17E, Q18P, K50R, L88V, I90V, F92Y, G105Q
notes: as for B6
B7: in [5], the Kd amounted to 13.8 nM and the koff came out at 0.00197 s⁻¹. In [6], the equilibrium dissociation constant (Kd) stood at 379 nM and the off-rate constant (koff) is 0.00194 s⁻¹.

B8: Mut1 (HuJovi-1 VH T28K), human IgG1 (antibody, V domains shown)
VH: B2 VH with T28K
VL: B1 VL with V2I, S14T, L15P, D17E, Q18P, K50R, L88V, I90V, F92Y, G105Q
notes: as the VH of m1 with the stated change; positions in Kabat numbering; constant region of the human IgG1 heavy chain; as the light chain of m1; IgG1; also called Lys28 mutant; Thr28Lys; source: ExpiCHO, transient transfection, purified (MabSelect SuRe)
As for B8, the dissociation constant Kd amounted to 6.69 nM in test [5] and 7480 nM in test [6]. The koff in test [5] came to 0.001 s⁻¹; in [6], 0.585 s⁻¹.

B9: Mut2 (HuJovi-1 VH T28K, Y32F), human IgG1 (antibody, V domains shown)
VH: B2 VH with T28K, Y32F
VL: B1 VL with V2I, S14T, L15P, D17E, Q18P, K50R, L88V, I90V, F92Y, G105Q
notes: as the VH of m1 with the stated changes; positions in Kabat numbering; constant region of the human IgG1 heavy chain; as the light chain of m1; IgG1; also called Lys28/Phe32; Thr28Lys, Tyr32Phe double mutant; source: ExpiCHO, transient transfection, purified (MabSelect SuRe)
On to B9, for which the Kd in test [5] amounted to 387 nM; in [6], 999 nM. Further, the koff is 0.0689 s⁻¹ in [5] and 0.125 s⁻¹ in test [6].

B10: RFN (Mut4; HuJovi-1 VH T28R, Y32F, A96N), human IgG1 (antibody, V domains shown)
VH: B2 VH with T28R, Y32F, A100N
VL: B1 VL with V2I, S14T, L15P, D17E, Q18P, K50R, L88V, I90V, F92Y, G105Q
notes: as the VH of m1 with the stated changes; positions in Kabat numbering; constant region of the human IgG1 heavy chain; as the light chain of m1; IgG1 in the SPR; also called Arg28/Phe32/Asn96; source: ExpiCHO, transient transfection, purified (MabSelect SuRe)
On to B10, for which, in [5], the Kd is 1440 nM and the koff came to 0.125 s⁻¹. Also, in test [6], the Kd was 582 nM and the koff turned out to be 0.045 s⁻¹.

B11: Mut7 (HuJovi-1 VH T28K, A96N), human IgG1 (antibody, V domains shown)
VH: B2 VH with T28K, A100N
VL: B1 VL with V2I, S14T, L15P, D17E, Q18P, K50R, L88V, I90V, F92Y, G105Q
notes: as the VH of m1 with the stated changes; positions in Kabat numbering; constant region of the human IgG1 heavy chain; as the light chain of m1; IgG1; source: ExpiCHO, transient transfection, purified (MabSelect SuRe)
For B11, in test [5], the Kd was determined as 36.5 nM and the koff was found to be 0.00524 s⁻¹. In test [6], the Kd came out at 395 nM and the koff was 0.166 s⁻¹.
